The text below walks through data of paper PMC4783868 (Nature, 2015).

The test concerns the target T1, PB2 subunit of the influenza C/Johannesburg/1/1966 virus polymerase (FluPolC) (influenza C/Johannesburg/1/1966 virus, UniProt Q9IMP3).
T1 sequence: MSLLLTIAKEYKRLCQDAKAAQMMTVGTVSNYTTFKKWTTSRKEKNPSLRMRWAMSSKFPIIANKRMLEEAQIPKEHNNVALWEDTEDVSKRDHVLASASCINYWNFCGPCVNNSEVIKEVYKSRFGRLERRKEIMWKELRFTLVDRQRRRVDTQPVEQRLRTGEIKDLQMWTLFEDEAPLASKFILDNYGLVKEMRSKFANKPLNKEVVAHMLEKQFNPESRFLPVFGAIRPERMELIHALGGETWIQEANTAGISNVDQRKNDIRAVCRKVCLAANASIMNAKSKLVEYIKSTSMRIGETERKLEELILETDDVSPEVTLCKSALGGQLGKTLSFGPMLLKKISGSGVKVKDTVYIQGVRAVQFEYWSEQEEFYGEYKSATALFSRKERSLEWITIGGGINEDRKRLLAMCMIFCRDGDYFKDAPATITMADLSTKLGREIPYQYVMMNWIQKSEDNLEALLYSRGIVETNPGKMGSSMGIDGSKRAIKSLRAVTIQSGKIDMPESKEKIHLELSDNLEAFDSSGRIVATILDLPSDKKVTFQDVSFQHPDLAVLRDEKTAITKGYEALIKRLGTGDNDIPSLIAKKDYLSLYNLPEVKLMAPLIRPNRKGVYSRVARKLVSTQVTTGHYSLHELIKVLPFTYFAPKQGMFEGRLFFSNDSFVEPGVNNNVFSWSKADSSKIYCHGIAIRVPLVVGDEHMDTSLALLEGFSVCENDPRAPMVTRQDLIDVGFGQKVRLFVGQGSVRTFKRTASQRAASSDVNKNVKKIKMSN
The test can be described thus: crystal structure.

B1: P3 subunit of the influenza C/Johannesburg/1/1966 virus polymerase (FluPolC) (natural protein)
chain: MSKTFAEIAEAFLEPEAVRIAKEAVEEYGDHERKIIQIGIHFQVCCMFCDEYLSTNGSDRFVLIEGRKRGTAVSLQNELCKSYDLEPLPFLCDIFDREEKQFVEIGITRKADDSYFQSKFGKLGNSCKIFVFSYDGRLDKNCEGPMEEQKLRIFSFLATAADFLRKENMFNEIFLPDNEETIIEMKKGKTFLELRDESVPLPFQTYEQMKDYCEKFKGNPRELASKVSQMQSNIKLPIKHYEQNKFRQIRLPKGPMAPYTHKFLMEEAWMFTKISDPERSRAGEILIDFFKKGNLSAIRPKDKPLQGKYPIHYKNLWNQIKAAIADRTMVINENDHSEFLGGIGRASKKIPEISLTQDVITTEGLKQSENKLPEPRSFPRWFNAEWMWAIKDSDLTGWVPMAEYPPADNELEDYAEHLNKTMEGVLQGTNCAREMGKCILTVGALMTECRLFPGKIKVVPIYARSKERKSMQEGLPVPSEMDCLFGICVKSKSHLNKDDGMYTIITFEFSIREPNLEKHQKYTVFEAGHTTVRMKKGESVIGREVPLYLYCRTTALSKIKNDWLSKARRCFITTMDTVETICLRESAKAEENLVEKTLNEKQMWIGKKNGELIAQPLREALRVQLVQQFYFCIYNDSQLEGFCNEQKKILMALEGDKKNKSSFGFNPEGLLEKIEECLINNPMCLFMAQRLNELVIEASKRGAKFFKTD
With B1, the binding result was “binds”.

B2: PB1 subunit of the influenza C/Johannesburg/1/1966 virus polymerase (FluPolC) (natural protein)
chain: MEINPYLMFLNNDVTSLISTTYPYTGPPPMSHGSSTKYTLETIKRTYDYSRTSVEKTSKVFNIPRRKFCNCLEDKDELVKPTGNVDISSLLGLAEMMEKRMGEGFFKHCVMEAETEILKMHFSRLTEGRQTYDWTSERNMPAATALQLTVDAIKETEGPFKGTTMLEYCNKMIEMLDWKEIKFKKVKTVVRREKDKRSGKEIKTKVPVMGIDSIKHDEFLIRALTINTMAKDGERGKLQRRAIATPGMIVRPFSKIVETVAQKICEKLKESGLPVGGNEKKAKLKTTVTSLNARMNSDQFAVNITGDNSKWNECQQPEAYLALLAYITKDSSDLMKDLCSVAPVLFCNKFVKLGQGIRLSNKRKTKEVIIKAEKMGKYKNLMREEYKNLFEPLEKYIQKDVCFLPGGMLMGMFNMLSTVLGVSTLCYMDEELKAKGCFWTGLQSSDDFVLFAVASNWSNIHWTIRRFNAVCKLIGINMSLEKSYGSLPELFEFTSMFFDGEFVSNLAMELPAFTTAGVNEGVDFTAAMSIIKTNMINNSLSPSTALMALRICLQEFRATYRVHPWDSRVKGGRMKIINEFIKTIENKDGLLIADGGKLMNNISTLHIPEEVLKFEKMDEQYRNRVFNPKNPFTNFDKTIDIFRAHGPIRVEENEAVVSTHSFRTRANRTLLNTDMRAMMAEEKRYQMVCDMFKSVFESADINPPIGAMSIGEAIEEKLLERAKMKRDIGAIEDSEYEEIKDIIRDAKKARLESR
As for B2, the binding result is reported as “binds”.
